Columns and labels:
[1] = target: pepsin (Sus scrofa, UniProt P00791); test: Pepsin digestion resistance in simulated gastric fluid, RP-HPLC; format: in vitro ADME, porcine; parameters: purchased Sigma Aldrich P7012; conditions: 500 U/ml pepsin in SGF pH 1.05, 30 minutes at 37.5° C.; HPLC peak vs untreated peptide
In short: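 Digestion resistance read by reversed-phase HPLC (C-18, 0.1% TFA, 5–45% acetonitrile over 10 min; 214/280 nm) after 12.5 μg peptide spent 30 min at 37.5 °C in pH 1.05 simulated gastric fluid, with or without 500 U/ml pepsin. Some samples quenched with Tris base and DTT.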

[2] = target: trypsin (Sus scrofa, UniProt P00761); test: Trypsin digestion resistance of soluble peptide, RP-HPLC; format: in vitro ADME, porcine; parameters: purchased Sigma Aldrich 6567; conditions: 500 U/ml trypsin, 30 minutes at 37.5° C.; HPLC peak vs untreated peptide
In short: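 Read-out was RP-HPLC (C-18, water/acetonitrile with 0.1% TFA, 5-45% over 10 min) of peptide left after trypsin treatment. Digest: 12.5 μg peptide, 500 U/ml porcine trypsin, PBS, 37.5° C for 30 min, stopped by soybean trypsin inhibitor; samples then reduced (10 mM DTT) or left non-reduced.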

[3] = Resistance to reduction by DTT, RP-HPLC; format: physicochemical; conditions: 10 mM DTT in PBS, room temperature, 30 minutes; HPLC peak vs untreated peptide
In short: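 Peptide (12.5 μg from a 2 mg/ml stock, or 0.015 mM final in PBS) was held 30 min at room temperature with or without 10 mM DTT. Reduced and non-reduced forms were compared by C-18 RP-HPLC using a 5–45% acetonitrile/0.1% TFA gradient over 10 min, with detection at 214 and 280 nm.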

[4] = Resistance to elevated temperature, HPLC; format: physicochemical; conditions: HPLC peak vs untreated peptide; for Resistance to Temperature (75° C.): 75° C. for one hour; for Resistance to Temperature (100° C.): 100° C. for one hour; for Resistance to Temperature (70° C.): 70° C. for one hour
In short: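 Peptides were incubated at room temperature, 70° C or 100° C for one hour in ddH2O; another protocol used 70° C, 75° C or 100° C for one hour in 0.5 mM PBS, then pelleting and analysis of the supernatant. Remaining peptide was measured by C-18 RP-HPLC, 5–45% acetonitrile/0.1% TFA over 10 min.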

Sequence of trypsin (P00761 9-231): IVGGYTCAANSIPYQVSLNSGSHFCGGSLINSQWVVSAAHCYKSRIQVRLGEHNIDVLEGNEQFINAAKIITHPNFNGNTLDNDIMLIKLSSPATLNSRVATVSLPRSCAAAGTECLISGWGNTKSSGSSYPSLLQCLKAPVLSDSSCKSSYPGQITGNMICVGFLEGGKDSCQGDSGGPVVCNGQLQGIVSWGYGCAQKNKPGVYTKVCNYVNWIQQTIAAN
Sequence of pepsin (P00791 60-385): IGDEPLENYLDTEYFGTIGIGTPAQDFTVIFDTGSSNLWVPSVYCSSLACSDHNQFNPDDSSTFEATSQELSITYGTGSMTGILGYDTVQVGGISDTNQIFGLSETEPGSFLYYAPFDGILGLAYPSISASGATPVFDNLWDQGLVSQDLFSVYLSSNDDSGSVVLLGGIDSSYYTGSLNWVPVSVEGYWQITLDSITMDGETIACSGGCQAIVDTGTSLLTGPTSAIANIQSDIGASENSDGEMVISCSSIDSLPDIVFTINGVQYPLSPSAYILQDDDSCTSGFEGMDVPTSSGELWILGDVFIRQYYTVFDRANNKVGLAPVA

Substance	Resistance to Pepsin (500 U/ml) [1]	Resistance to Trypsin (500 U/ml) [2]	Resistance to DTT Reduction (10 mM) [3]	Resistance to Temperature (75° C.) [4]	Resistance to Temperature (100° C.) [4]	Resistance to Temperature (70° C.) [4]
20 (GSGHACYRNCWREGNDEETCKERC) [compound 20]	High (A peptide classified as high indicates that the majority (at least 75%) of the HPLC peak of the treated peptide is still present as compared to the HPLC peak of the untreated peptide)	High (A peptide classified as high indicates that the majority (at least 75%) of the HPLC peak of the treated peptide is still present as compared to the HPLC peak of the untreated peptide)	Low (A peptide classified as low indicates that the majority (over 75%) of the HPLC peak of the treated peptide disappeared as compared to the HPLC peak of the untreated peptide)	High (A peptide classified as high indicates that the majority (at least 75%) of the HPLC peak of the treated peptide is still present as compared to the HPLC peak of the untreated peptide)	Moderate (A peptide classified as medium indicates that about half (between 25% and 75%) of the HPLC peak of the treated peptide disappeared as compared to the HPLC peak of the untreated peptide)	
21 (GSRCQLQGFNCVVRSYGLPTIPCCRGLTCRSYFPGSTYGRCQRY) [compound 21]	High (A peptide classified as high indicates that the majority (at least 75%) of the HPLC peak of the treated peptide is still present as compared to the HPLC peak of the untreated peptide)	Moderate (A peptide classified as medium indicates that about half (between 25% and 75%) of the HPLC peak of the treated peptide disappeared as compared to the HPLC peak of the untreated peptide)	Low (A peptide classified as low indicates that the majority (over 75%) of the HPLC peak of the treated peptide disappeared as compared to the HPLC peak of the untreated peptide)	High (A peptide classified as high indicates that the majority (at least 75%) of the HPLC peak of the treated peptide is still present as compared to the HPLC peak of the untreated peptide)	Low (A peptide classified as low indicates that the majority (over 75%) of the HPLC peak of the treated peptide disappeared as compared to the HPLC peak of the untreated peptide)	
23 (GSEVIRCSGSKQCYGPCKQQTGCTNSKCMNKVCKCYGCG) [compound 23]	High (A peptide classified as high indicates that the majority (at least 75%) of the HPLC peak of the treated peptide is still present as compared to the HPLC peak of the untreated peptide)	Low (A peptide classified as low indicates that the majority (over 75%) of the HPLC peak of the treated peptide disappeared as compared to the HPLC peak of the untreated peptide)	Low (A peptide classified as low indicates that the majority (over 75%) of the HPLC peak of the treated peptide disappeared as compared to the HPLC peak of the untreated peptide)	High (A peptide classified as high indicates that the majority (at least 75%) of the HPLC peak of the treated peptide is still present as compared to the HPLC peak of the untreated peptide)	Low (A peptide classified as low indicates that the majority (over 75%) of the HPLC peak of the treated peptide disappeared as compared to the HPLC peak of the untreated peptide)	
25 (GSACLAEYQKCEGSTVPCCPGLSCSAGRFRKTKLCTK) [compound 25]	High (A peptide classified as high indicates that the majority (at least 75%) of the HPLC peak of the treated peptide is still present as compared to the HPLC peak of the untreated peptide)	Low (A peptide classified as low indicates that the majority (over 75%) of the HPLC peak of the treated peptide disappeared as compared to the HPLC peak of the untreated peptide)	Low (A peptide classified as low indicates that the majority (over 75%) of the HPLC peak of the treated peptide disappeared as compared to the HPLC peak of the untreated peptide)	High (A peptide classified as high indicates that the majority (at least 75%) of the HPLC peak of the treated peptide is still present as compared to the HPLC peak of the untreated peptide)	Low (A peptide classified as low indicates that the majority (over 75%) of the HPLC peak of the treated peptide disappeared as compared to the HPLC peak of the untreated peptide)	High (A peptide classified as high indicates that the majority (at least 75%) of the HPLC peak of the treated peptide is still present as compared to the HPLC peak of the untreated peptide)
32 (GSSCAKPRENCNRMNILCCRGECVCPTFGDCFCYGD) [compound 32]	High (A peptide classified as high indicates that the majority (at least 75%) of the HPLC peak of the treated peptide is still present as compared to the HPLC peak of the untreated peptide)	Low (A peptide classified as low indicates that the majority (over 75%) of the HPLC peak of the treated peptide disappeared as compared to the HPLC peak of the untreated peptide)	Low (A peptide classified as low indicates that the majority (over 75%) of the HPLC peak of the treated peptide disappeared as compared to the HPLC peak of the untreated peptide)	High (A peptide classified as high indicates that the majority (at least 75%) of the HPLC peak of the treated peptide is still present as compared to the HPLC peak of the untreated peptide)	High (A peptide classified as high indicates that the majority (at least 75%) of the HPLC peak of the treated peptide is still present as compared to the HPLC peak of the untreated peptide)	High (A peptide classified as high indicates that the majority (at least 75%) of the HPLC peak of the treated peptide is still present as compared to the HPLC peak of the untreated peptide)
34 (GSGCFGYKCDYYKGCCSGYVCSPTWKWCVRPGPGR) [compound 34]	Low (A peptide classified as low indicates that the majority (over 75%) of the HPLC peak of the treated peptide disappeared as compared to the HPLC peak of the untreated peptide)	Low (A peptide classified as low indicates that the majority (over 75%) of the HPLC peak of the treated peptide disappeared as compared to the HPLC peak of the untreated peptide)	Low (A peptide classified as low indicates that the majority (over 75%) of the HPLC peak of the treated peptide disappeared as compared to the HPLC peak of the untreated peptide)	High (A peptide classified as high indicates that the majority (at least 75%) of the HPLC peak of the treated peptide is still present as compared to the HPLC peak of the untreated peptide)	Low (A peptide classified as low indicates that the majority (over 75%) of the HPLC peak of the treated peptide disappeared as compared to the HPLC peak of the untreated peptide)	
46 (GSDCKYKFENWGACDGGTGTKVRQGTLKKARYNAQCQETIRVTKPC) [compound 46]	Low (A peptide classified as low indicates that the majority (over 75%) of the HPLC peak of the treated peptide disappeared as compared to the HPLC peak of the untreated peptide)	Low (A peptide classified as low indicates that the majority (over 75%) of the HPLC peak of the treated peptide disappeared as compared to the HPLC peak of the untreated peptide)	Low (A peptide classified as low indicates that the majority (over 75%) of the HPLC peak of the treated peptide disappeared as compared to the HPLC peak of the untreated peptide)	High (A peptide classified as high indicates that the majority (at least 75%) of the HPLC peak of the treated peptide is still present as compared to the HPLC peak of the untreated peptide)	Low (A peptide classified as low indicates that the majority (over 75%) of the HPLC peak of the treated peptide disappeared as compared to the HPLC peak of the untreated peptide)	
